Results on 2 molecules are retold here after patent publication US20250066499A1 (SUNSHINE GUOJIAN PHARMACEUTICAL SHANGHAI, published 2025).

One experiment concerns the target T1, human CD73-His protein (human, UniProt P21589 27-549).
T1 construct: Expressed in HEK-293F with a signal peptide that is not specified; In the ELISAs it was biotinylated with EZ-Link NHS-Biotin (CD73-biotin) and captured on streptavidin; in SPR and the enzyme assay it was used as CD73-His; also called CD73-his antigen; CD73-biotin
T1 sequence: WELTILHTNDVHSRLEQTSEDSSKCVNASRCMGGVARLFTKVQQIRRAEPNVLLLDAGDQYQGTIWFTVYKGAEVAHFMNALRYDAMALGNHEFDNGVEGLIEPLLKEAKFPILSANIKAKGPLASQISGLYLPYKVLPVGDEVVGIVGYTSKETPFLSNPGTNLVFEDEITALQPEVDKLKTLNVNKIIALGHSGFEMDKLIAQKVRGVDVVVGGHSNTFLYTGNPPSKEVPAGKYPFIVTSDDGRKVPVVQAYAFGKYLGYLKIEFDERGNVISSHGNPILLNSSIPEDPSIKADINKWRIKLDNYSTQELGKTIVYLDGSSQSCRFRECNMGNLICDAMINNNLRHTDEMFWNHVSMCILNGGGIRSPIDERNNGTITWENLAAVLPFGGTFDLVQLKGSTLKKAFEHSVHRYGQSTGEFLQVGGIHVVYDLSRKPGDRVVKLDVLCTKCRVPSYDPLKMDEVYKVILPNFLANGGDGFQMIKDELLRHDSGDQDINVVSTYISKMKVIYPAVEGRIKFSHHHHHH
As to the kind of experiment: ELISA, biotinylated CD73-His on streptavidin plate. The procedure:
(§1) The ELISA plates were coated with SA protein diluted to 1.5 μg/mL in coating buffer (50 mM carbonate coating buffer, pH 9.6) and incubated overnight at 4° C. The supernatant was discarded, and the plates were washed three times with PBST. Then, 5% skimmed milk powder prepared with PBS was added for blocking and the plates were incubated for 2 h at 37° C. After washing the plates once with PBST, CD73-biotin protein (prepared by biotinylating CD73-His protein according to the EZ-Link NHS-Biotin Reagent instructions) was diluted to 0.5 μg/mL and added at 100 μL/well for incubation at room temperature for 1 h. The plates were washed three times with PBST, and the prepared murine-derived monoclonal antibodies against human CD73 were serially diluted with 1% BSA buffer prepared with PBST and added to the ELISA plates at 100 μl/well. The plates were incubated at 37° C. for 1 h. After washing the plates three times with PBST, HRP-labeled goat anti-mouse IgG secondary antibody was added and the plates were incubated for 30 min at 37° C. After washing the plates three times with PBST, the residual droplets were patted dry on absorbent paper as much as possible. Then, 100 μl of TMB color developing solution was added to each well, and the plates were incubated in the dark at room temperature for 5 min for color development. Subsequently, 50 μl of 2M H₂SO₄ stop solution was added to each well to terminate the substrate reaction. The OD values were read at 450 nm using a multimode microplate reader to analyze the binding ability of the tested antibodies to the target antigen human CD73-His.
The binding affinity of various humanized antibodies to human CD73-his protein was measured with reference to Example 3.

The target of experiment [1] is T2, cynomolgus monkey CD73 protein (cynomolgus monkey, UniProt A0A2K5V5U7 27-547).
T2 construct: Bought protein; also called CD73-cynomolgus monkey
T2 sequence: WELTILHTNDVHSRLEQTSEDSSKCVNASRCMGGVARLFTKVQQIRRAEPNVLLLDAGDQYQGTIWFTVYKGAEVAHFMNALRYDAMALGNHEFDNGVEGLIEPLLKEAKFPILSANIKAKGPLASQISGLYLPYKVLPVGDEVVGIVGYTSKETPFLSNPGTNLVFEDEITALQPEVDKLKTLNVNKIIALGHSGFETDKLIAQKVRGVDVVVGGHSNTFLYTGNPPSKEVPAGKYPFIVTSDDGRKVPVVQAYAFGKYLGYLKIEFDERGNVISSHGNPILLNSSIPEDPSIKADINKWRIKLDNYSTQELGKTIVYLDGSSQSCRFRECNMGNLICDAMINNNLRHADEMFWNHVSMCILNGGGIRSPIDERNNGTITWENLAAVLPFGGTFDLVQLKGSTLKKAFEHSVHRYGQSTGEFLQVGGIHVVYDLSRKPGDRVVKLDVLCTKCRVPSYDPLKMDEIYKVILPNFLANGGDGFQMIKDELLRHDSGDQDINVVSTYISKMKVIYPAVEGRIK
As to the kind of experiment: SPR Biacore 8K, antibody captured on Protein A/G, antigen in flow.

The target of a further experiment is T3, CD73-ND-V186A (human, UniProt P21589 27-317).
T3 construct: Alanine mutant of CD73-ND
T3 sequence: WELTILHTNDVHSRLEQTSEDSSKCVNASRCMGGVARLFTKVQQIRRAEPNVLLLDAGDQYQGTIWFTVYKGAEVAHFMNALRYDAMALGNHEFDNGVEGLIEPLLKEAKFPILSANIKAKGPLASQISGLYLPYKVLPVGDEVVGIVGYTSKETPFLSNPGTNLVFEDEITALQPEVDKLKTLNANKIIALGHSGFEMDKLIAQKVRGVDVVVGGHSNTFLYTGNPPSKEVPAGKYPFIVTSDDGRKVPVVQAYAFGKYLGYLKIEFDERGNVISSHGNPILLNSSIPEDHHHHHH
In words: ELISA, high plateau value (OD 450 nm). The procedure:
as §1
(§2) Referring to the experimental method in Example 3, the affinity of 48A11-HuV33 for various mutant proteins of CD73-ND was determined. The SA protein was diluted to 1 μg/mL for coating the ELISA plates, and the biotinylated CD73 protein (CD73-biotin) was used at a concentration of 0.1 μg/mL.

For experiment [2], the target named is T4, CD73-ND-his (human, UniProt P21589 27-317).
T4 construct: Biotinylated and captured on streptavidin in the ELISA
T4 sequence: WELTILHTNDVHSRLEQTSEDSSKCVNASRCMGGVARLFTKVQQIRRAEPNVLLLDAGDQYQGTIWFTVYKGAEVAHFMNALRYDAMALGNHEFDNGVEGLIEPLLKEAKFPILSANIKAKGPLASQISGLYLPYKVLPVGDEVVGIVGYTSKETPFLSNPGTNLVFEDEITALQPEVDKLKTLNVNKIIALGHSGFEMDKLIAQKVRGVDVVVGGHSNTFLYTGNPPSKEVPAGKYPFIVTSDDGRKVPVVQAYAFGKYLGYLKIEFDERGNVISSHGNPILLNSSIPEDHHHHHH
As to the kind of experiment: ELISA, high plateau value (OD 450 nm). The procedure:
as §1, §2

For experiment [3], the target named is T4, CD73-ND-his. As to the kind of experiment: ELISA as in Example 3, antigen CD73-ND-his, antibody titrated, absorbance 450 nm.

B1: 56B10-HuV31 (antibody, human IgG4, V domains shown)
VH: QVQLQQSGAEVKKPGASVKVSCKASGYTFTRYYIYWVRQRPGQGLEWIGWIYPGNFNTKYNEKFKGRATLTADTSASTAYMELSSLTSEDTAVYYCARDVYDYAGFAYWGQGTLVTVSS
VL: DIQLTQSPSFLSASVGDRVTITCKASQGVATAVAWYQQKPGQSPKLLIYWASTRHTGVPDRFSGSGSGTEFTLTISSLQPEDFATYYCQQYSSYPWTFGQGTKVEIK
notes: Humanized
Regarding B1, in the experiment with human CD73-His protein, the concentration for a half-maximal effect (EC50) was 0.079 nM. Also, in experiment [1], the affinity, expressed as Kd, was 7.13 nM; the dissociation rate constant (koff) was determined as 0.000712 s⁻¹; the kon came to 99900 M⁻¹ s⁻¹.

B2: 48A11-HuV33 (antibody, human IgG4, V domains shown)
VH: QVQLVQSGAEVKKPGASVKVSCKASGYTFTSYWMHWVRQAPGQGLEWIGEINPSIGRTNYNEKFKSRVTLTRDTSTSTAYMELSSLRSEDTAVYYCARRVYGTMDYWGQGTLVTVSS
VL: DIQMTQSPSSLSASVGDRVTITCKASQDINSYLSWFQQKPGKSPKLLIYRANIWVDGVPSRFSGSGSGQDYTFTISSLQPEDIATYYCLQYDELYTFGQGTKVEIK
notes: Humanized
In the case of B2, the Top with CD73-ND-V186A worked out at 1.62. Further, in the experiment with CD73-ND-his [2], the Top is 1.94. In the experiment with human CD73-His protein, this molecule yielded an EC50 of 0.069 nM. Moreover, the “EC50 (read off the curve)” value with CD73-ND-his [3] was ~0.04 nM. Besides, in experiment [1], the equilibrium dissociation constant (Kd) worked out at 12.1 nM, the dissociation rate constant (koff) was determined as 0.000883 s⁻¹ and the kon was found to be 72800 M⁻¹ s⁻¹.
